In patent US20160130324A1:

Biological target: rhC1s (human) (UniProt P09871)
Assay: inhibition of C1s cleavage of a colorimetric peptide substrate, mean OD value; C is the midpoint of the 4-parameter fit

rhC1s (human), sequence (P09871 16-688 limits assumed): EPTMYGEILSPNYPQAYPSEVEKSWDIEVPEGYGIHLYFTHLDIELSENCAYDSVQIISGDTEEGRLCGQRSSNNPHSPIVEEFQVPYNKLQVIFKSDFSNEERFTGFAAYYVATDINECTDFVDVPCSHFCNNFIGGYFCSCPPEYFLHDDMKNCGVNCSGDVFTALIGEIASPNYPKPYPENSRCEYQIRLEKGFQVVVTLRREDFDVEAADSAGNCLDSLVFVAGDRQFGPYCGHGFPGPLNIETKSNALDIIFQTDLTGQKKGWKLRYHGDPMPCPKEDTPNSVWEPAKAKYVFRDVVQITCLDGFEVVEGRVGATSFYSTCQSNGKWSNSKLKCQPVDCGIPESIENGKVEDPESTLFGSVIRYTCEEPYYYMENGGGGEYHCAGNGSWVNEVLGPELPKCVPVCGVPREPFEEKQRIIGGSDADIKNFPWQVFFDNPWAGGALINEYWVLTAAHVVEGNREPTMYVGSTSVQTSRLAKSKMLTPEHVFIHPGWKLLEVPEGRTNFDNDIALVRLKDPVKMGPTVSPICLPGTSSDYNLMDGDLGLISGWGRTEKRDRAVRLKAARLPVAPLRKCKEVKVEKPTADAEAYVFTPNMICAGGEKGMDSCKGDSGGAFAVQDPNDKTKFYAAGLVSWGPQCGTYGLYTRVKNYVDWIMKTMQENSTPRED

Row | Substance | IC50 [nM]
1 | HSA-C1-INH | 1.67
2 | HSA_D3-C1-INH | 1.45
